According to US20090299038A1 (LIVTECH, published 2009):
Residue numbers refer to the chain shown, from its start. Values joined by “and” are separate entries in the source; they are usually repeats but may differ in a detail not shown here. Equal entries are not always repeated.

T1: hDlk-1 EGF-like motif deletion mutant EGF (5-6) expressed on COS-7 cells (human, UniProt P80370 170-245)
T1 construct: also called hDlk-1 (EGF 5-6)-pME18-CHFX
T1 sequence: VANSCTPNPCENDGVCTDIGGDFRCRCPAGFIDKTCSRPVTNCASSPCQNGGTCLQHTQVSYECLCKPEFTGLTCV

T2: hDlk-1 EGF-like motif deletion mutant EGF (4-6) expressed on COS-7 cells (human, UniProt P80370 131-244)
T2 construct: also called hdlk-EGF (4-6)/pME18S-CFHX
T2 sequence: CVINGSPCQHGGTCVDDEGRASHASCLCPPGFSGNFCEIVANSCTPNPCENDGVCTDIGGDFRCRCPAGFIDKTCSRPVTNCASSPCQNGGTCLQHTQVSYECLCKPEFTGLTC

T3: purified recombinant hFA-1 protein (hDlk-1 extracellular region) (human, UniProt P80370 24-303)
T3 construct: also called human FA1; FA-1 region of hDlk-1; not shown: C-terminal Myc tag and His tag from the pcDNA4/Myc-His vector
T3 sequence: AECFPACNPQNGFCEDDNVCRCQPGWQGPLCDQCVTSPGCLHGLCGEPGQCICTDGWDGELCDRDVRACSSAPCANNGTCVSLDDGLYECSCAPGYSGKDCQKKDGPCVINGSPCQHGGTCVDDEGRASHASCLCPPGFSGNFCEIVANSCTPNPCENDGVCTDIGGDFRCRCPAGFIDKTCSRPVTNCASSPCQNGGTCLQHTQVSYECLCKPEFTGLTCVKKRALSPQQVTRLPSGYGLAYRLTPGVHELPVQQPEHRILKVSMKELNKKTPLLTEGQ

B1: mouse anti-hDlk-1 monoclonal antibody clone DI-2-14 (antibody, V domains shown)
VH: EVQLQQSGAELVKPGASVKLSCTASGFNIRDTYIHWVKQRPEQGLEWIGRIDPPNGNLKYDPKFQGKATITADTSSNTAYLQFSSLTSEDTAVYYCARSDGYSFAYWGQGTLVTVSA
VL: DIVMTQAAPSVPVTPGESVSISCRSSKSLLHSNGNTYLYWFLQRPGQSPQLLIYRMSNLASGVPDRFSGSGSGTAFTLRISRVEAEDVGVYYCMQHVEYPFTFGSGTKLEIK
notes: also called mouse DI-2-14 antibody; clone DI-2-14 (mouse IgG1)
B2: mouse-human chimeric DI-2-14 antibody (ChDI-2-14) (antibody, V domains shown)
VH: B1 VH
VL: B1 VL
notes: also called DI-2-14 IgG1/κ
B3: humanized anti-hDlk-1 monoclonal antibody HuDI-2-14-1 (antibody, V domains shown)
VH: QVQLVQSGAEVKKPGSSVKVSCKASGFNIRDTYIHWVRQAPGQGLEWIGRIDPPNGNLKYDPKFQGKATITADTSTSTAYMEFSSLRSEDTAVYYCARSDGYSFAYWGQGTLVTVSS
VL: B1 VL with A7S, A8P, P9L, V11L, S18P, V19A, R44K, R79K, S105Q, L109V
notes: also called HuDI-2-14-1 IgG1/κ
B4: humanized anti-hDlk-1 monoclonal antibody HuDI-2-14-2 (antibody, V domains shown)
VH: B3 VH with F83L
VL: B1 VL with A7S, A8P, P9L, V11L, S18P, V19A, R44K, R79K, S105Q, L109V
notes: also called HuDI-2-14-2 IgG1/κ

Experiments:
[1] = target: T1, hDlk-1 EGF-like motif deletion mutant …; assay: FACS of transfected COS-7 cells
[2] = target: T2, hDlk-1 EGF-like motif deletion mutant …; assay: FACS of transfected COS-7 cells
[3] = target: T3, purified recombinant hFA-1 protein …; assay: ELISA method (Djavadi-Ohaniance): antibody 0.5 nM equilibrated with hFA-1 in solution, then added to immobilised hFA-1
[4] = target: T3, purified recombinant hFA-1 protein …; assay: ELISA, antibody dilution series on immobilised hFA-1

Row | Binder | binding result [1] | binding result [2] | Kd [3] | EC50 [4] [µg/mL]
1 | B1 | no binding | no binding | 4.02 nM and 9.26 nM | < 0.01
2 | B2 | – | – | 3.4 nM | < 0.01
3 | B3 | – | – | 2.8 nM | < 0.01
4 | B4 | – | – | 3.1 nM | < 0.01
